Measurements reported in patent publication US20240360194A1, “New Peptides as Potent and Selective GIP Receptor Agonists” (Sanofi, priority 2021, published 2024).
Numbered stars: 1 amine (or outer) side, 2 acyl side, 3 side chain; on linkers, the order of the positions; unused ones are H or OH. Square brackets hold non-standard residues; d marks the D form. Side chains are listed from the residue outwards. Ends that are not written are not given here. * marks the point of attachment. C18 diacid = O=C(O)CCCCCCCCCCCCCCCCC(=O)*; γGlu = O=C(O)[C@H](CCC(=O)[*:2])N[*:1]; AEEA = NCCOCCOCC(=O)O; Aib = CC(C)(N)C(=O)O

T1: human GIP receptor (human, UniProt P48546 22-466)
T1 sequence (looked up): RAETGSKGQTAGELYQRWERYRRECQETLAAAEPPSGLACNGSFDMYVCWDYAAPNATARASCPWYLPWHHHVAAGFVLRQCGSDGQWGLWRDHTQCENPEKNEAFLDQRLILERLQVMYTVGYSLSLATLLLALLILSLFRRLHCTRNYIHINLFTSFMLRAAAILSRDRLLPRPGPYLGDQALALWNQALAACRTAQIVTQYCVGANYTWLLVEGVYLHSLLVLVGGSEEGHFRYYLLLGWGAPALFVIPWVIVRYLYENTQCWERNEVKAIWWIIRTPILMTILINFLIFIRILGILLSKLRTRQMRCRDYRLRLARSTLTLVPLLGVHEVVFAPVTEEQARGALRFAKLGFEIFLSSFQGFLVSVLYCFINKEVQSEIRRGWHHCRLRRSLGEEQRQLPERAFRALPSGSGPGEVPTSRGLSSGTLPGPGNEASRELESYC


Legend:
human GIP receptor [1] = molecular target: T1, human GIP receptor; experiment: cell-based or functional assay
human GIP receptor [2] = molecular target: T1, human GIP receptor; experiment: cell-based or functional assay; remark: listed apart in the source
human GLP-1 receptor [3] = molecular target: T2, human GLP-1 receptor (human, UniProt P43220 24-463); experiment: cell-based or functional assay
human GLP-1 receptor [4] = molecular target: T2, human GLP-1 receptor; experiment: displacement of [125I]GLP-1 from HEK-293 membranes expressing hGLP-1R (SPA beads)

Binder	hGIPR EC50 (cAMP, human adipocytes) (human GIP receptor [1])	hGIPR Emax (cAMP, human adipocytes) (human GIP receptor [1])	EC50 hGIPR 0% HSA (cAMP, HEK-293) (human GIP receptor [2])	EC50 hGIPR 0.1% BSA (cAMP, HEK-293) (human GIP receptor [2])	EC50 hGLP-1R 0.1% BSA (cAMP, HEK-293) (human GLP-1 receptor [3])	IC50 (human GLP-1 receptor [4])
Y[Aib]EGTFISDLSI[Aib]K([AEEA-AEEA-γGlu-C18 diacid])ERIHQ[Aib]EFIEWLLAQGPSSGAPPPS-NH2 (N-terminus assumed; SMILES CC[C@H](C)[C@H](NC(=O)[C@H](CCCNC(=N)N)NC(=O)[C@H](CCC(=O)O)NC(=O)[C@H](CCCCNC(=O)COCCOCCNC(=O)COCCOCCNC(=O)CC[C@H](NC(=O)CCCCCCCCCCCCCCCCC(=O)O)C(=O)O)NC(=O)C(C)(C)NC(=O)[C@@H](NC(=O)[C@H](CO)NC(=O)[C@H](CC(C)C)NC(=O)[C@H](CC(=O)O)NC(=O)[C@H](CO)NC(=O)[C@@H](NC(=O)[C@H](Cc1ccccc1)NC(=O)[C@@H](NC(=O)CNC(=O)[C@H](CCC(=O)O)NC(=O)C(C)(C)NC(=O)[C@@H](N)Cc1ccc(O)cc1)[C@@H](C)O)[C@@H](C)CC)[C@@H](C)CC)C(=O)N[C@@H](Cc1c[nH]cn1)C(=O)N[C@@H](CCC(N)=O)C(=O)NC(C)(C)C(=O)N[C@@H](CCC(=O)O)C(=O)N[C@@H](Cc1ccccc1)C(=O)N[C@H](C(=O)N[C@@H](CCC(=O)O)C(=O)N[C@@H](Cc1c[nH]c2ccccc12)C(=O)N[C@@H](CC(C)C)C(=O)N[C@@H](CC(C)C)C(=O)N[C@@H](C)C(=O)N[C@@H](CCC(N)=O)C(=O)NCC(=O)N1CCC[C@H]1C(=O)N[C@@H](CO)C(=O)N[C@@H](CO)C(=O)NCC(=O)N[C@@H](C)C(=O)N1CCC[C@H]1C(=O)N1CCC[C@H]1C(=O)N1CCC[C@H]1C(=O)N[C@@H](CO)C(N)=O)[C@@H](C)CC, Synthetic peptide, 39 residues) [SEQ ID NO: 21]	2.8 nM	120%	0.19 pM	8.36 pM	> 10 nM	146 nM
Y[Aib]EGTFISDLSI[Aib]K([AEEA-AEEA-γGlu-C18 diacid])DRIHQ[Aib]EFIEWLLAQEPSSGAPPPS-NH2 (N-terminus assumed; SMILES CC[C@H](C)[C@H](NC(=O)[C@H](CCCNC(=N)N)NC(=O)[C@H](CC(=O)O)NC(=O)[C@H](CCCCNC(=O)COCCOCCNC(=O)COCCOCCNC(=O)CC[C@H](NC(=O)CCCCCCCCCCCCCCCCC(=O)O)C(=O)O)NC(=O)C(C)(C)NC(=O)[C@@H](NC(=O)[C@H](CO)NC(=O)[C@H](CC(C)C)NC(=O)[C@H](CC(=O)O)NC(=O)[C@H](CO)NC(=O)[C@@H](NC(=O)[C@H](Cc1ccccc1)NC(=O)[C@@H](NC(=O)CNC(=O)[C@H](CCC(=O)O)NC(=O)C(C)(C)NC(=O)[C@@H](N)Cc1ccc(O)cc1)[C@@H](C)O)[C@@H](C)CC)[C@@H](C)CC)C(=O)N[C@@H](Cc1c[nH]cn1)C(=O)N[C@@H](CCC(N)=O)C(=O)NC(C)(C)C(=O)N[C@@H](CCC(=O)O)C(=O)N[C@@H](Cc1ccccc1)C(=O)N[C@H](C(=O)N[C@@H](CCC(=O)O)C(=O)N[C@@H](Cc1c[nH]c2ccccc12)C(=O)N[C@@H](CC(C)C)C(=O)N[C@@H](CC(C)C)C(=O)N[C@@H](C)C(=O)N[C@@H](CCC(N)=O)C(=O)N[C@@H](CCC(=O)O)C(=O)N1CCC[C@H]1C(=O)N[C@@H](CO)C(=O)N[C@@H](CO)C(=O)NCC(=O)N[C@@H](C)C(=O)N1CCC[C@H]1C(=O)N1CCC[C@H]1C(=O)N1CCC[C@H]1C(=O)N[C@@H](CO)C(N)=O)[C@@H](C)CC, Synthetic peptide, 39 residues (Glu at 30)) [SEQ ID NO: 29]	5.3 nM	119%	0.15 pM	15.2 pM	> 10 nM	287 nM
Y[Aib]EGTFISDLSI[Aib]K([AEEA-AEEA-γGlu-C18 diacid])DRIHQ[Aib]EFIEWLLAQRPSSGAPPPS-NH2 (N-terminus assumed; SMILES CC[C@H](C)[C@H](NC(=O)[C@H](CCCNC(=N)N)NC(=O)[C@H](CC(=O)O)NC(=O)[C@H](CCCCNC(=O)COCCOCCNC(=O)COCCOCCNC(=O)CC[C@H](NC(=O)CCCCCCCCCCCCCCCCC(=O)O)C(=O)O)NC(=O)C(C)(C)NC(=O)[C@@H](NC(=O)[C@H](CO)NC(=O)[C@H](CC(C)C)NC(=O)[C@H](CC(=O)O)NC(=O)[C@H](CO)NC(=O)[C@@H](NC(=O)[C@H](Cc1ccccc1)NC(=O)[C@@H](NC(=O)CNC(=O)[C@H](CCC(=O)O)NC(=O)C(C)(C)NC(=O)[C@@H](N)Cc1ccc(O)cc1)[C@@H](C)O)[C@@H](C)CC)[C@@H](C)CC)C(=O)N[C@@H](Cc1c[nH]cn1)C(=O)N[C@@H](CCC(N)=O)C(=O)NC(C)(C)C(=O)N[C@@H](CCC(=O)O)C(=O)N[C@@H](Cc1ccccc1)C(=O)N[C@H](C(=O)N[C@@H](CCC(=O)O)C(=O)N[C@@H](Cc1c[nH]c2ccccc12)C(=O)N[C@@H](CC(C)C)C(=O)N[C@@H](CC(C)C)C(=O)N[C@@H](C)C(=O)N[C@@H](CCC(N)=O)C(=O)N[C@@H](CCCNC(=N)N)C(=O)N1CCC[C@H]1C(=O)N[C@@H](CO)C(=O)N[C@@H](CO)C(=O)NCC(=O)N[C@@H](C)C(=O)N1CCC[C@H]1C(=O)N1CCC[C@H]1C(=O)N1CCC[C@H]1C(=O)N[C@@H](CO)C(N)=O)[C@@H](C)CC, Synthetic peptide, 39 residues (Arg at 30)) [SEQ ID NO: 30]	0.5 nM	138%	0.48 pM	11 pM	> 10 nM	151 nM
Y[Aib]EGTFISDLSI[Aib]LEEQK([AEEA-AEEA-γGlu-C18 diacid])Q[Aib]EFIEWLLAQGPSSGAPPPS-NH2 (N-terminus assumed; SMILES CC[C@H](C)[C@H](NC(=O)[C@H](Cc1ccccc1)NC(=O)[C@H](CCC(=O)O)NC(=O)C(C)(C)NC(=O)[C@H](CCC(N)=O)NC(=O)[C@H](CCCCNC(=O)COCCOCCNC(=O)COCCOCCNC(=O)CC[C@H](NC(=O)CCCCCCCCCCCCCCCCC(=O)O)C(=O)O)NC(=O)[C@H](CCC(N)=O)NC(=O)[C@H](CCC(=O)O)NC(=O)[C@H](CCC(=O)O)NC(=O)[C@H](CC(C)C)NC(=O)C(C)(C)NC(=O)[C@@H](NC(=O)[C@H](CO)NC(=O)[C@H](CC(C)C)NC(=O)[C@H](CC(=O)O)NC(=O)[C@H](CO)NC(=O)[C@@H](NC(=O)[C@H](Cc1ccccc1)NC(=O)[C@@H](NC(=O)CNC(=O)[C@H](CCC(=O)O)NC(=O)C(C)(C)NC(=O)[C@@H](N)Cc1ccc(O)cc1)[C@@H](C)O)[C@@H](C)CC)[C@@H](C)CC)C(=O)N[C@@H](CCC(=O)O)C(=O)N[C@@H](Cc1c[nH]c2ccccc12)C(=O)N[C@@H](CC(C)C)C(=O)N[C@@H](CC(C)C)C(=O)N[C@@H](C)C(=O)N[C@@H](CCC(N)=O)C(=O)NCC(=O)N1CCC[C@H]1C(=O)N[C@@H](CO)C(=O)N[C@@H](CO)C(=O)NCC(=O)N[C@@H](C)C(=O)N1CCC[C@H]1C(=O)N1CCC[C@H]1C(=O)N1CCC[C@H]1C(=O)N[C@@H](CO)C(N)=O, Synthetic peptide, 39 residues) [SEQ ID NO: 36]	0.3 nM	104%	0.12 pM	28.8 pM	> 10 nM	115 nM
Y[Aib]EGTFISDLSI[Aib]K([AEEA-AEEA-γGlu-C18 diacid])DRIHQEEFIEWLLAQEPSSGAPPPS-NH2 (N-terminus assumed; SMILES CC[C@H](C)[C@H](NC(=O)[C@H](Cc1ccccc1)NC(=O)[C@H](CCC(=O)O)NC(=O)[C@H](CCC(=O)O)NC(=O)[C@H](CCC(N)=O)NC(=O)[C@H](Cc1c[nH]cn1)NC(=O)[C@@H](NC(=O)[C@H](CCCNC(=N)N)NC(=O)[C@H](CC(=O)O)NC(=O)[C@H](CCCCNC(=O)COCCOCCNC(=O)COCCOCCNC(=O)CC[C@H](NC(=O)CCCCCCCCCCCCCCCCC(=O)O)C(=O)O)NC(=O)C(C)(C)NC(=O)[C@@H](NC(=O)[C@H](CO)NC(=O)[C@H](CC(C)C)NC(=O)[C@H](CC(=O)O)NC(=O)[C@H](CO)NC(=O)[C@@H](NC(=O)[C@H](Cc1ccccc1)NC(=O)[C@@H](NC(=O)CNC(=O)[C@H](CCC(=O)O)NC(=O)C(C)(C)NC(=O)[C@@H](N)Cc1ccc(O)cc1)[C@@H](C)O)[C@@H](C)CC)[C@@H](C)CC)[C@@H](C)CC)C(=O)N[C@@H](CCC(=O)O)C(=O)N[C@@H](Cc1c[nH]c2ccccc12)C(=O)N[C@@H](CC(C)C)C(=O)N[C@@H](CC(C)C)C(=O)N[C@@H](C)C(=O)N[C@@H](CCC(N)=O)C(=O)N[C@@H](CCC(=O)O)C(=O)N1CCC[C@H]1C(=O)N[C@@H](CO)C(=O)N[C@@H](CO)C(=O)NCC(=O)N[C@@H](C)C(=O)N1CCC[C@H]1C(=O)N1CCC[C@H]1C(=O)N1CCC[C@H]1C(=O)N[C@@H](CO)C(N)=O, Synthetic peptide, 39 residues (Glu at 30)) [SEQ ID NO: 27]	0.6 nM	116%	0.29 pM	32 pM	> 10 nM	465 nM
